Experiment: soluble on expression in E. coli; label from the status in PepcDB or PDB records

| Sequence | soluble on expression in E. coli |
| --- | --- |
| MKHEWRKFEKELYGVKAKPIFLEVEEQRFITIKGKGNPNDQDFSNRVSALYALAYGIKMAYKQAMKTEQDDRAVTDFAVYPLEGLWQQAKDAKEDTLEKDKLSYTIMIRQPEFITKELVDQALDRVKIKKPNSFYESISFESIKDGKCIQVLHIGSYDDEPQSFAKMDAFAKEHGLKRSSDIHREIYLSNAQRTEKSKLKTILRYQVEEK | not soluble |
| MGSDKIHHHHHHMMSMKIFETTAPHPEASLLTAFSKNALDRFAEKRTEECVAEALKVDGTHIFAFSGNRLVLKHDEQVIDPLFSAYELAELQPDFDNAVLLGYRETGEPRIAVPVAVAEDQLASHYKLADARTLYRDHLLDEELLSEVAQAVSLTHWNADNRFCGRCGGTMEQRIGGYKRICASCSHTIFPRTDPVVIMMTIDIERDLCLLGRGAHFASGMYSCLAGFVEPGETIEQAVRRETHEESGVEIGRVRYHASQPWPMPHTLMIGCYAEALSSDIARDEIELEDCRWFTREEVAKMLEAPAGEGFSAPPIGAIAHRLMRDWVEWPE | not soluble |
| MTKIKIVVIVGPTAVGKTALGISLAKAFNGEIISGDSQQVYRQLDIGTAKATQEEQEAAVHHLIDIREVTESYSAYDFVQDAQKSISDIVSRGKLPIIVGGTGLYLQSLLEGYHLGGQVDQEAVKAYRNELEQLDDHDLYERLQVNNITIEQVNRRRAIRALELAQFADELENAETAYEPLIIGLNDDRQVIYDRINQRVNRMIENGLLEEAKWLYEHYPTVQASRGIGYKELFPYFVGEMTLAEASDQLKQNTRRFAKRQLTWFRNRMAVSFTAITAPDYPQVVHDRVRDFLGQKEKSLEHHHHHH | not soluble |
| MGSSHHHHHHGMASMTGGQQMGRDLYDDDDKDPSSRSMAKLTKPKTEGILHKGQSLYEYLDARVLTSKPFGAAGDATTDDTEVIAASLNSQKAVTISDGVFSSSGINSNYCNLDGRGSGVLSHRSSTGNYLVFNNPRTGRLSNITVESNKATDTTQGQQVSLAGGSDVTVSDVNFSNVKGTGFSLIAYPNDAPPDGLMIKGIRGSYSGYATNKAAGCVLADSSVNSLIDNVIAKNYPQFGAVELKGTASYNIVSNVIGADCQHVTYNGTEGPIAPSNNLIKGVMANNPKYAAVVAGKGSTNLISDVLVDYSTSDARQAHGVTVEGSDNVINNVLMSGCDGTNSLGQRQTATIARFIGTANNNYASVFPSYSATGVITFESGSTRNFVEVKHPGRRNDLLSSASTIDGAATIDGTSNSNVVHAPALGQYIGSMSGRFEWRIKSMSLPSGVLTSADKYRMLGDGAVSLAVGGGTSSQVRLFTSDGTSRTVSLTNGNVRLSTSSTGYLQLGADAMTPDSTGTYALGSASRAWSGGFTQAAFTVTS | soluble |
| MNGPIIMTREERMKIVHEIKERILDKYGDDVKAIGVYGSLGRQTDGPYSDIEMMCVMSTEEAEFSHEWTTGEWKVEVNFYSEEILLDYASQVESDWPLTHGQFFSILPIYDSGGYLEKVYQTAKSVEAQTFHDAICALIVEELFEYAGKWRNIRVQGPTTFLPSLTVQVAMAGAMLIGLHHRICYTTSASVLTEAVKQSDLPSGYDHLCQFVMSGQLSDSEKLLESLENFWNGIQEWTERHGYIVDVSKRIPF | soluble |
| MGHERDWSLVQVALTDITARKKAEAYLEYLGKHDVLTKLHNRAFYSDELNRLERSALRPVSAIVIDLNGLKEANDKLGHDAGDALLRRVGEVLNGVVTAPNHAARIGGDEFAILLPGADKQVAAAMVDTVYELLKINNQFYSSAPLSLSLGVATTEAGETMESLVRRADMNMYEQKNAYYAALRNRSADNNDTTKGLEHHHHHH | not soluble |
| PQEKVSRIHASSGTTGRPTVVGYTTGDLNNWADLVARSLRAGGVKPTDKVHVAYGYGLFTGGLGAHYGAERLGCTVIPMSGGMTDRQIQLIEDFEPDAIMVTPSYMLTIVDAMIKKGIDPSKTSLRTGVFGAEPWTEEMRTELEKQLNMDAVDIYGLSEVMGPGVAMECVDTKDGLHI | not soluble |
| MKSRTRWLTSEELVTLFEAMRQAPGFSVENGLSIKLLLLLAVRKGELIGARWSEFDLDKAVWYLPAERTKTESAIDIPLPPIAVEWLRELQRLAGVSKWVLPARKMQDRMIPHIAESTLSVALAKIKHGLEPFTIHDLRRTARTHFEALGVAPHIAERCLNHKIKGIEGIYNRHDYFEERKAALEAWAGLLLQIERGEADKVVPIRRAVATKQLEHHHHHH | not soluble |
| MHKDIKIVDASAIVKPTGTPYVVYFSSISNNTHRFIEKLEFEHTRIPVNLDEQIEVNQEYVLFCPTYSGGGEYTSGAVPKQVIHFLNNKHNRDLCRGVISSGNTNFGNTFAIAGPILSKKLNVPLLYQFELLGTKNDVEQVQTIITNFFGKAK | soluble |
| MAHHHHHHMFSESDRRVRYTKGIGPQEASKEGGLLGDEGGKTWRMPKDKPQQNPASVDDNRIDDSIARGDGDNARDSGDGPGDNFLFTPTAARVDVHPLVLLSLVDHYARVNTKVTQKRRVAGLLLGRYKRLPDGTQLLDINNSFAVPFDEDPHNSDVWFVDTNYADEMFHMFRRVLPRVQVVGWYSAGPSFSVQPNDMLLHLLVADRFTANPVYCIVNTDPGNKGVPVLAYTTVQGREGVRSLEFRNIPTHLGAEEAEEIGIEHLLRDLTDSTITTLSTQIQERELSLAHLSCVLQSIEDYLQDVAEGLMPISEDVLSVLQELISLQPHIYHLKRSTEMIRHSNDQAIAMFIAAIGRCVGALYDVIANRRRINSEMVEVRARREQALKEKLEHEQHKAKEVVTTEKDENNNAK | not soluble |
| MGDSEIYVSLDIGTASVKVIIAEMADDRLNIIGVGNVESSGIKKGIIIDIDKTVESIKKAIEQAERMVGVEISQVIVGVVSSQVHLEACRGIVAVGSENREITDEDVWNVMDAAQVVPLSPEREIINTIPDQFVVDGLTGITDPRGMIGVRLEMEGTLITGSKTILHNTLRCVERAGLEISDIALQPLAEASISLSEDDKEFGTALVNIGAGTTTVSVFEQGRLTYTGVIPVGGDNITKDLSLGLNTSTANADRVKLEHGYAFYDDASPDEVFAIDVIGSDQKQHFTQVEVADIIEARMEEIFQLVVEELNRVGKTHLPGGYVLTGGSMAIPGAIDLAGKTLAAHVRLAIPDYIGVREPSFTTAVGLIKYAYQMAELEGRDVSSTASEPRYDDEAPKQPKQKPKKSDDEKVSTKMKNFFGAFFE | not soluble |
| VSSGAGSDATGAGGVHAAGSGDRAVAAAVERAKATAARNIPAFDDLPVPADTANLREGADLNNALLALLPLVGVWRGEGEGRGPDGDYRFGQQIVVSHDGGDYLNWESRSWRLTATGDYQEPGLREAGFWRFVADPYDPSESQAIELLLAHSAGYVELFYGRPRTQSSWELVTDALARSRSGVLVGGAKRLYGIVEGGDLAYVEERVDADGGLVPHLSARLSRFVG | soluble |
| MSALTPPTDMPTPTTDKITQAAMETIYLCKFRVSMDGEWLCLRELDDISLTPDPEPTHEDSWEDLTDLVEQVRADPEDPNYLMANERMNLMNMAKLSIKGLIESALNLGRTLDSDYAPLQQFFVVMEHCLKHGLKAKKTFLGQNKSFWGPLELVEKLVPEAAEITASVKDLPGLKTPVGRGRAWLRLALMQKKLSEYMKALINKKELLSEFYEVNALMMEEEGAIIAGLLVGLNVIDANFCMKGEDLDSQVGVIDFSMYLKDGNSSKGSEGDGQITAILDQKNYVEELNRHLNATVNNLQTKVDLLEKSNTKLTEELAVANNRIITLQEEMERVKEESSYLLESNRKGPKKTELQKGKR | soluble |
| MQRSLFSKFRQILTYKCDWYGKELILADKTYPSTQRCAKCGYVKTGDEKITLQGNQKHGTKHNEYICYKCDYSNDRDENAVLNLLALARLEHHHHHH | not soluble |
| MGSDKIHHHHHHMEIGIIGTGNIGGTLARKLIAAGHQVRVANSKGIHGVQSFADEIGATAVDVYGAVKGADAIILSIPLPALASLPNGFFDDLPETVPLIDTSNYYPGLRDPLIPEIDDGMTESVWVSQQLSHPVIKAFNNILAWSLAELGTPKGSASRLAIAVAGDNATLKQIVMNLVDDTGFDAIDAGSLEESWRQQPSTPAYCCDYDAETMKKGLTAAVRGEAASKRDRLPELFGKLGANPTHEDIVAMNRSLNP | not soluble |

Source: the DeepSol protein solubility set
